US20180355064A1 (published 2018)

Key:
[1] = biological target: human CD3 epsilon 1-26_Fc fusion protein; assay: SPR
[2] = biological target: cynomolgus monkey CD3 epsilon 1-26_Fc fusion protein; assay: SPR

Kd [1] [nM] | Kd [2] [nM] | Binder
0.4 | 1 | chimeric 9G7 antibody (antibody, V domains shown) VH: QVTLKESGPGILQPSQTLSLTCSFSGLSLSTSGKGVGWIRQPSGKGLEWLAHIWWDDDKRYNPALKSRLTISKDTSSNQVFLKIASVDTADTATYYCARIELGRSYVMDYWGQGTTVTVSS VL: DIVMTQSHKFMSTSVGDRVSISCKASQDVITSVAWFQQKPGQSPKLLIYSASYRYTGVPDRFTGSGSGTDFTFTISSVQAEDLAVYYCQQHYTIPLTFGAGTKLELKR
0.4 | 1 | humanized 9G7 best-framework antibody (antibody, V domains shown) VH: EVQLVESGGGLVQPGGSLRLSCAFSGLSLSTSGKGVGWIRQAPGKGLEWLAHIWWDDDKRYNPALKSRLTISKDTSKNTVYLQMNSLRAEDTAVYYCARIELGRSYVMDYWGQGTLVTVSS VL: DIQMTQSPSSLSASVGDRVTITCRASQDVITSVAWFQQKPGKAPKLLIYSASYRYTGVPSRFSGSGSGTDFTLTISSLQPEDFATYYCQQHYTIPLTFGQGTKVEIKR
0.5 | 3.2 | humanized 9G7 best-fit antibody (antibody, V domains shown) VH: QVTLKESGPTLVKPTQTLTLTCTFSGLSLSTSGKGVGWIRQPPGKALEWLAHIWWDDDKRYNPALKSRLTITKDTSKNQVVLTMTNMDPVDTATYYCARIELGRSYVMDYWGQGTLVTVSS VL: DIQMTQSPSSLSASVGDRVTITCQASQDVITSVAWYQQKPGKAPKLLIYSASYRYTGVPSRFSGSGSGTDFTFTISSLQPEDIATYYCQQHYTIPLTFGQGTKLEIKR
